The text below walks through data of publication PMC3020112 (The EMBO Journal, 2010).

“And” between values parts separate entries of the source, which are not always exact repeats. Equal values may be shown once. Read-outs that look alike come from different tables or passages of the source.

The chains are these.
B3: FtsZ, full length (E. coli) (natural protein)
chain: MFEPMELTNDAVIKVIGVGGGGGNAVEHMVRERIEGVEFFAVNTDAQALRKTAVGQTIQIGSGITKGLGAGANPEVGRNAADEDRDALRAALEGADMVFIAAGMGGGTGTGAAPVVAEVAKDLGILTVAVVTKPFNFEGKKRMAFAEQGITELSKHVDSLITIPNDKLLKVLGRGISLLDAFGAANDVLKGAVQGIAELITRPGLMNVDFADVRTVMSEMGYAMMGSGVASGEDRAEEAAEMAISSPLLEDIDLSGARGVLVNITAGFDLRLDEFETVGNTIRAFASDNATVVIGTSLDPDMNDELRVTVVATGIGMDKRPEITLVTNKQVQQPVMDRYQQHGMAPLTQEQKPVAKVVNDNAPQTAKEPDYLDIPAFLRKQAD
B4: SlmA (synthetic lethal with a defective Min system) (natural protein)
chain: MAEKQTAKRNRREEILQSLALMLESSDGSQRITTAKLAASVGVSEAALYRHFPSKTRMFDSLIEFIEDSLITRINLILKDEKDTTARLRLIVLLLLGFGERNPGLTRILTGHALMFEQDRLQGRINQLFERIEAQLRQVLREKRMREGEGYTTDETLLASQILAFCEGMLSRFVRSEFKYRPTDDFDARWPLIAAQLQ

One series addresses T1, SlmA (Escherichia coli, UniProt P0C093 1-198).
T1 sequence: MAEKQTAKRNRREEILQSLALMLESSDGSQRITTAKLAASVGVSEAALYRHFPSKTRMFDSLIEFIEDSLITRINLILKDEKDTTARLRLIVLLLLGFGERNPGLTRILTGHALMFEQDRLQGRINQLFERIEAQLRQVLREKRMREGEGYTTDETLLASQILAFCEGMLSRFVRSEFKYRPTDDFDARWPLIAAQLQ
Kind of series: fluorescence polarization.

Series [1] addresses B4. Kind of series: SAXS.
The series “SAXS” deals with the molecule itself. Nature of the series: SAXS.
In series [2] the target is B3. Kind of series: fluorescence polarisation. On the technique in general: Polarisation of emitted light reports the rotation of a fluorescent probe.
Series [3] has as its target B3. Kind of series: fluorescence polarisation. The source holds these as a separate data set.
The series “SEC” concerns the molecule itself. Kind of series: SEC. In general terms: In gel filtration, larger molecules generally elute earlier.
Series [4] addresses T2, SlmA (synthetic lethal with a defective Min system) (E. coli), P0C093.
T2 chain: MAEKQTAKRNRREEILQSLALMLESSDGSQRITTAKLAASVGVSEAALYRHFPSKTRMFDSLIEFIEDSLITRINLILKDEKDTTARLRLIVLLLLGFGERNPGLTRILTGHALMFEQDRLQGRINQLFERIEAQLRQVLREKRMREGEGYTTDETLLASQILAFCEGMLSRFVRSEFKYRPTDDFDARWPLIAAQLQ
Kind of series: fluorescence polarisation. The note with it: remark: other sources report otherwise.

B1: SBS position 3 G to A (symmetric double mutant) (dsDNA)
DNA 1: GTAAGTACTTAC
DNA 2: GTAAGTACTTAC
For orientation: Kd means the concentration at which binding is half-saturated. Lower therefore signals higher affinity. In the series with SlmA, B1 registered a Kd of about 60 nM.

B2: randomized DNA 1 (dsDNA)
DNA 1: AGTCTATAGACT
DNA 2: AGTCTATAGACT
In the case of B2, in the series with SlmA, the binding result is “no binding”.
As a reminder, the stoichiometry N is the number of molecules, sites or subunits per partner or assembly. Consider B3, for which, in series [1], the “stoichiometry N” value is 1 SlmA:FtsZ. For the same molecule, the binding result in “SAXS” is recorded as “binds”.
For B4, the Kd in series [2] was 119 ± 11 nM; in series [3], 142 nM and 130 nM and 205 nM. For the same molecule, in “SEC”, the “stoichiometry N” value came out at 2.

B5: C-terminal truncated FtsZ, FtsZ(1–360), P0A9A6 1-360 (domain or fragment)
chain: MFEPMELTNDAVIKVIGVGGGGGNAVEHMVRERIEGVEFFAVNTDAQALRKTAVGQTIQIGSGITKGLGAGANPEVGRNAADEDRDALRAALEGADMVFIAAGMGGGTGTGAAPVVAEVAKDLGILTVAVVTKPFNFEGKKRMAFAEQGITELSKHVDSLITIPNDKLLKVLGRGISLLDAFGAANDVLKGAVQGIAELITRPGLMNVDFADVRTVMSEMGYAMMGSGVASGEDRAEEAAEMAISSPLLEDIDLSGARGVLVNITAGFDLRLDEFETVGNTIRAFASDNATVVIGTSLDPDMNDELRVTVVATGIGMDKRPEITLVTNKQVQQPVMDRYQQHGMAPLTQEQKPVAKVVND
Take B5: in series [4], the Kd is 148 nM.

B6: randomized DNA 2 (dsDNA)
DNA 1: CCTCAGCTGAGG
DNA 2: CCTCAGCTGAGG
Turning to B6, the binding result in the series with SlmA is on record as “no binding”.
